Assay results: article PMC2783589

Biological target: revised CpaD from Aspergillus flavus NRRL3357 (full length, with the 43 N-terminal residues added) (Aspergillus flavus NRRL3357)
Assay: SEC

stoichiometry N: 2
Substance: revised CpaD from Aspergillus flavus NRRL3357 (full length, with the 43 N-terminal residues added) (enzyme)
